Results published in PMC3078326.

Legend:
PU.1 Ets domain [1] = biological target: T1, PU.1 Ets domain (UniProt P17947 170-253); assay: competition
Elk-1 Ets domain = biological target: T2, Elk-1 Ets domain (UniProt P19419 5-86); assay: EMSA
T2 sequence: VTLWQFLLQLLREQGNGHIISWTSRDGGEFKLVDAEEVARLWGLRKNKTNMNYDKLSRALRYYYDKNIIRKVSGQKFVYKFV

PU.1 Ets domain [2] = biological target: T1, PU.1 Ets domain; assay: EMSA

B1: IR5 MT1 (dsDNA)
DNA 1: CTCACTTTTGCGTCCCGCCGC
DNA 2: GCGGCGGGACGCAAAAGTGAG
B1: no binding (PU.1 Ets domain [1]).

B2: IR5 MT2 (dsDNA)
DNA 1: CTCACGGCCGCGTCCCGCCGC
DNA 2: GCGGCGGGACGCGGCCGTGAG
B2: no binding (PU.1 Ets domain [1]).

B3: IR5 WT (dsDNA)
DNA 1: CTCACTTCCGCGTCCCGCCGC
DNA 2: GCGGCGGGACGCGGAAGTGAG
B3: no binding (Elk-1 Ets domain); binds (PU.1 Ets domain [2]).
